According to US20170291939A1 (Novartis, published 2017):

T1: recombinant mIL-17A (mouse, UniProt Q62386 26-158)
T1 sequence: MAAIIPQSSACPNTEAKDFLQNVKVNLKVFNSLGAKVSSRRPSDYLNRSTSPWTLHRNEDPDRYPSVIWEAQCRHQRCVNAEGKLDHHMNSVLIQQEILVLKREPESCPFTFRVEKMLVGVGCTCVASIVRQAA

T2: recombinant huIL-17A (SEQ ID NO: 76) (human, UniProt Q16552 24-155, limits assumed)
T2 sequence: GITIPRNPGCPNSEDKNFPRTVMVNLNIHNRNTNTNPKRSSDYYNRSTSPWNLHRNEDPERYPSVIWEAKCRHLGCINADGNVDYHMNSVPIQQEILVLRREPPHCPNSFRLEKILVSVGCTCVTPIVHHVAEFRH

T3: human IL-17A (construct not specified) (human, UniProt Q16552 24-155, limits assumed)
T3 sequence: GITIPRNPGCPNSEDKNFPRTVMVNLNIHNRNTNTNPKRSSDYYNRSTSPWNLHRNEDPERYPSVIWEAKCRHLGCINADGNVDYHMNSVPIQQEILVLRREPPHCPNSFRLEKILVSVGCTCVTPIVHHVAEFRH


Experiments:
recombinant mIL-17A = biological target: T1, recombinant mIL-17A; assay: cell-based or functional assay
[1] = biological target: T2, recombinant huIL-17A (SEQ ID NO: 76); assay: cell-based or functional assay
[2] = biological target: T2, recombinant huIL-17A (SEQ ID NO: 76); assay: cell-based or functional assay; remark: listed apart in the source
[3] = biological target: T3, human IL-17A (construct not specified); assay: cell-based or functional assay
[4] = biological target: T3, human IL-17A (construct not specified); assay: ELISA, coated huIL-17A, then 200 nM XAB1 Fab as competitor
[5] = biological target: T3, human IL-17A (construct not specified); assay: ELISA, coated huIL-17A, long wash
[6] = biological target: T3, human IL-17A (construct not specified); assay: ELISA, coated huIL-17A, crude Fab extract

Binder | IC50, KC secretion by CMT-93 cells; mIL-17A (0.15 nM) (recombinant mIL-17A) [nM] | IC50, huGROα secretion by BJ cells; rhuIL-17A (0.5 nM) [1] [nM] | IC50, huIL-6 secretion by BJ cells; rhuIL-17A (0.5 nM) [2] [nM] | EC50, T = 0 weeks [3] [µg/mL] | EC50, T = 4 weeks at pH 8, 40° C. (forced deamidation) [3] [ng/ml] | Competition ELISA (normalized to XAB1 Fab) [4] [fold] | Off-rate ELISA (normalized to XAB1 Fab) [5] [fold] | Classic ELISA (normalized to XAB1 Fab) [6] [fold]
MB464 (Fab, V domains shown, Fab variant of XAB1) VH: EVQLVESGGDLVQPGGSLRLSCAASGFTFSSYWMSWVRQAPGKGLEWVANIKQDGSEKYYVDSVKGRFTISRDNAKNSLYLQMNSLRAEDTAVYYCARDRGSLYYWGQGTLVTVSS VL: AIQLTQSPSSLSASVGDRVTITCRPSQGIIYQLAWYQQKPGKAPKLLIYDASSLENGVPSRFSGSGSGTDFTLTISSLQPEDFATYYCQQFNSYPLTFGGGTKVEIK |  |  |  |  |  | 36.9 | 34.9 | 2.7
MB483 (Fab, V domains shown, Fab variant of XAB1) VH: EVQLVESGGDLVQPGGSLRLSCAASGFTFSSYWMSWVRQAPGKGLEWVANIKQDGSEKYYVDSVKGRFTISRDNAKNSLYLQMNSLRAEDTAVYYCARDRGSLYYWGQGTLVTVSS VL: AIQLTQSPSSLSASVGDRVTITCRPSQGIFWTLAWYQQKPGKAPKLLIYDASSLENGVPSRFSGSGSGTDFTLTISSLQPEDFATYYCQQFNSYPLTFGGGTKVEIK |  |  |  |  |  | 45.2 | 47.1 | 3.1
MB468 (Fab, V domains shown, Fab variant of XAB1) VH: EVQLVESGGDLVQPGGSLRLSCAASGFTFSSYWMSWVRQAPGKGLEWVANIKQDGSEKYYVDSVKGRFTISRDNAKNSLYLQMNSLRAEDTAVYYCARDRGSLYYWGQGTLVTVSS VL: AIQLTQSPSSLSASVGDRVTITCRPSQGIYWELAWYQQKPGKAPKLLIYDASSLENGVPSRFSGSGSGTDFTLTISSLQPEDFATYYCQQFNSYPLTFGGGTKVEIK |  |  |  |  |  | 60 | 43.9 | 2.8
MB486 (Fab, V domains shown, Fab variant of XAB1) VH: EVQLVESGGDLVQPGGSLRLSCAASGFTFSSYWMSWVRQAPGKGLEWVANIKQDGSEKYYVDSVKGRFTISRDNAKNSLYLQMNSLRAEDTAVYYCARDRGSLYYWGQGTLVTVSS VL: AIQLTQSPSSLSASVGDRVTITCRPSQGIWWMLAWYQQKPGKAPKLLIYDASSLENGVPSRFSGSGSGTDFTLTISSLQPEDFATYYCQQFNSYPLTFGGGTKVEIK |  |  |  |  |  | 64.9 | 58.5 | 1.9

Second part, the binder after the results:

IC50, KC secretion by CMT-93 cells; mIL-17A (0.15 nM) (recombinant mIL-17A) [nM] | IC50, huGROα secretion by BJ cells; rhuIL-17A (0.5 nM) [1] [nM] | IC50, huIL-6 secretion by BJ cells; rhuIL-17A (0.5 nM) [2] [nM] | EC50, T = 0 weeks [3] [µg/mL] | EC50, T = 4 weeks at pH 8, 40° C. (forced deamidation) [3] [ng/ml] | Competition ELISA (normalized to XAB1 Fab) [4] [fold] | Off-rate ELISA (normalized to XAB1 Fab) [5] [fold] | Classic ELISA (normalized to XAB1 Fab) [6] [fold] | Binder
< 1 | 0.42 | 0.5 | 0.04 | 40 |  |  |  | XAB3 (antibody, human IgG1, kappa, V domains shown) VH: EVQLVESGGDLVQPGGSLRLSCAASGFTFSSYWMSWVRQAPGKGLEWVANIKQDGSEKYYVDSVKGRFTISRDNAKNSLYLQMNSLRAEDTAVYYCARDRGSLYYWGQGTLVTVSS VL: AIQLTQSPSSLSASVGDRVTITCRPSQGIYWELAWYQQKPGKAPKLLIYDASSLEQGVPSRFSGSGSGTDFTLTISSLQPEDFATYYCQQFNSYPLTFGGGTKVEIKR
7.8 | 0.46 | 0.54 | 0.045 | 61 |  |  |  | XAB5 (antibody, human IgG1, kappa, V domains shown) VH: EVQLVESGGDLVQPGGSLRLSCAASGFTFSSYWMSWVRQAPGKGLEWVANIKQDGSEKYYVDSVKGRFTISRDNAKNSLYLQMNSLRAEDTAVYYCARDRGSLYYWGQGTLVTVSS VL: AIQLTQSPSSLSASVGDRVTITCRPSQGINWELAWYQQKPGKAPKLLIYDASSLENGVPSRFSGSGSGTDFTLTISSLQPEDFATYYCQQFNSYPLTFGGGTKVEIKR
 |  |  |  |  | 44.2 | 43 | 2.1 | MB491 (Fab, V domains shown, Fab variant of XAB1) VH: EVQLVESGGDLVQPGGSLRLSCAASGFTFSSYWMSWVRQAPGKGLEWVANIKQDGSEKYYVDSVKGRFTISRDNAKNSLYLQMNSLRAEDTAVYYCARDRGSLYYWGQGTLVTVSS VL: AIQLTQSPSSLSASVGDRVTITCRPSQGIFFWLAWYQQKPGKAPKLLIYDASSLENGVPSRFSGSGSGTDFTLTISSLQPEDFATYYCQQFNSYPLTFGGGTKVEIK
